{"source": "patent US20260001961A1", "about": "(ALLIGATOR BIOSCIENCE, published 2026)", "binders": {"B1": {"name": "AC_05374 (bispecific antibody, human IgG1, lambda, L234A L235A)", "heavy 1": "not shown", "light": "not shown", "heavy 2": "EVQLLESGGGLVQPGGSLRLSCAASGFTFSSYAMSWVREAPGKGLEWVSAISGSGGSAYYADSVKGRFTISRDNSKNTLYLQMNSLRAEDTAVYYCARYYGGYYSAWMDYWGQGTLVTVSSASTKGPSVFPLAPSSKSTSGGTAALGCLVKDYFPEPVTVSWNSGALTSGVHTFPAVLQSSGLYSLSSVVEVPSSSLGTQTYICNVNHKPSNTKVDKKVEPKSC", "notes": "AC_05330 with the mutation in the VH of chain H2; also called T65A mutant of AC_05330; copies: 2 + 2 + 2"}, "B2": {"name": "AC_05375 (bispecific antibody, human IgG1, lambda, L234A L235A)", "heavy 1": "not shown", "light": "not shown", "heavy 2": "B1 heavy 2 with A58I", "notes": "AC_05330 with the mutation in the VH of chain H2; also called T65I mutant of AC_05330; copies: 2 + 2 + 2"}, "B3": {"name": "AC_05332 (bispecific antibody, human IgG1, kappa, L234A L235A)", "heavy": "not shown", "light": "DIQMTQSPSSLSASVGDRVTITCRASQSISSYLNWYQEKPGKAPKLLIYAASSLQSGVPSRFSGSGSGTDFTLTISSLQPEDFATYYCQQTYGYLHTFGQGTKLEIKRTVAAPSVFIFPPSDEQLKSGTASVVCYLNNFYPREAKVQWKVDNALQSGNSQESVTEQDSKDSTYSLWSTLTLSKADYEKHKVYACEVTHQGLSSPVTKSFNRGEC", "chain": "EVQLLESGGGLVQPGGSLRLSCAASGFTFSSYAMSWVREAPGKGLEWVSGIGSYGGGTYYADSVKGRFTISRDNSKNTLYLQMNSLRAEDTAVYYCARYVNFGMDYWGQGTLVTVSSASTKGPSVFPLAPSSKSTSGGTAALGCLVKDYFPEPVTVSWNSGALTSGVHTFPAVLQSSGLYSLSSVVEVPSSSLGTQTYICNVNHKPSNTKVDKKVEPKSC", "notes": "RUBY format; H1 (role heavy) = IgG heavy chain-linker-Fab light chain, L1 (role light) = IgG light chain, H2 (role chain) = Fab heavy chain; also called parental bsAb AC_05332; 5T4xCD40"}, "B4": {"name": "AC_05376 (bispecific antibody)", "heavy 1": "not shown", "light": "B3 light with T91Y, Y92G, G93R, Y94N, L95P, H96P", "heavy 2": "B1 heavy 2 with A58E", "notes": "AC_05302 with the mutation in the VH of chain H2; also called T65E mutant of AC_05302; copies: 2 + 2 + 2"}}, "key": {"[1]": {"target": "T1, CD40 expressed on cells (UniProt P25942 21-277)", "T1 construct": "whole, on cells; also called B16-CD40; CD40 expressing B16 cells", "T1 sequence (P25942 21-277 limits assumed)": "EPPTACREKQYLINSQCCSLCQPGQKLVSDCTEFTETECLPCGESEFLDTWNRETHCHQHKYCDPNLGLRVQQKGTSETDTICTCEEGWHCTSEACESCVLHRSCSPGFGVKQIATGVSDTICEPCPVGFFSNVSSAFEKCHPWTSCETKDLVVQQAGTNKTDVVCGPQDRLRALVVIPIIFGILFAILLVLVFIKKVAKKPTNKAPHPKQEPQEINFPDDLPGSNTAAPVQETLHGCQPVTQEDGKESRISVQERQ", "experiment": "flow cytometry on B16 cells expressing CD40, anti-human IgG Fcg-PE; B16wt cells as control", "protocol": "(§1) Binding to respective targets expressed on cells were evaluated using flow cytometry. I brief, CHO cells modified to express 5T4, B16 cells modified to express CD40 as well as the wildtype CHO and B16 cell lines were incubated with titrated concentrations of RUBY™ bsAbs. Binding of the antibodies was detected using fluorochrome-conjugated anti-human IgG and analyzed using flow cytometry."}, "[2]": {"target": "T2, 5T4 (UniProt Q13641 32-355)", "T2 construct": "also called 5T4 antigen (dual target ELISA)", "T2 sequence (looked up)": "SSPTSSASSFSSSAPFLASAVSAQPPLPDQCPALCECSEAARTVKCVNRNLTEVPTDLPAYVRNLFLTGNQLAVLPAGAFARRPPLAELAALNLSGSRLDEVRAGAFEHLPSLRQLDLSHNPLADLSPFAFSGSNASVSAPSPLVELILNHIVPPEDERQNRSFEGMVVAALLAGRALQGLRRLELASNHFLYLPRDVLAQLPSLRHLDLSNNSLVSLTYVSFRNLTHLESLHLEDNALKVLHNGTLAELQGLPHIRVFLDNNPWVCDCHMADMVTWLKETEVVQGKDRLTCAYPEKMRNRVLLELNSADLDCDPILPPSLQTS", "experiment": "dual target ELISA (simultaneous 5T4 and CD40)", "protocol": "(§2) Antigen binding was evaluated by dual target ELISA. In brief, relevant antigens were coated at 0.5 μg/ml in PBS in ELISA plates over night at 4° C. After washing in PBS/0.05% Tween 20 (PBST), the plates were blocked with PBST/2% BSA for at least 30 minutes at room temperature before being washed again. Samples serially diluted in PBST/0.5% BSA were then added and allowed to bind for at least 1 hour at room temperature. […] Dual complexed bsAb were detected with HRP-labelled streptavidin. SuperSignal Pico Luminescent was used as substrate and luminescence signals were measured using Fluostar Optima. Binding was compared between parental and mutated RUBY pairs."}, "[3]": {"target": "T3, 5T4 expressed on CHO cells (UniProt Q13641 32-420, limits assumed)", "T3 construct": "whole, on cells; also called CHO-5T4; 5T4 expressing CHO cells", "T3 sequence (looked up)": "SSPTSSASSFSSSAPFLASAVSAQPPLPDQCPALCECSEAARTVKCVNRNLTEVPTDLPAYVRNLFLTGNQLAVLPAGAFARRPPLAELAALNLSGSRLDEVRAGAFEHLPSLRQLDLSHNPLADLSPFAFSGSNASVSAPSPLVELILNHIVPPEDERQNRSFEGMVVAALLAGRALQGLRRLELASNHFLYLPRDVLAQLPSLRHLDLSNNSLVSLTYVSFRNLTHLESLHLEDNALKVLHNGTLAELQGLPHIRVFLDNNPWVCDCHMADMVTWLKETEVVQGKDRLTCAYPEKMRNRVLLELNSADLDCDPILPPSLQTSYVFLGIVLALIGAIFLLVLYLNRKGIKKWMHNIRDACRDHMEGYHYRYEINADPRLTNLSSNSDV", "experiment": "flow cytometry on CHO cells expressing 5T4, anti-human IgG Fcg-PE; CHOwt cells as control", "protocol": "as §1"}, "[4]": {"target": "T1, CD40 expressed on cells", "experiment": "flow cytometry on B16 cells expressing CD40, anti-human IgG Fcg-PE; B16wt cells as control", "remark": "listed apart in the source", "protocol": "as §1"}, "[5]": {"target": "T3, 5T4 expressed on CHO cells", "experiment": "flow cytometry on CHO cells expressing 5T4, anti-human IgG Fcg-PE; CHOwt cells as control", "remark": "listed apart in the source", "protocol": "as §1"}, "[6]": {"target": "T1, CD40 expressed on cells", "experiment": "flow cytometry on B16 cells expressing CD40, anti-human IgG Fcg-PE; B16wt cells as control", "remark": "listed apart in the source", "protocol": "as §1"}, "[7]": {"target": "T4, CD40 (UniProt P25942 21-193)", "T4 construct": "also called biotinylated CD40; CD40 antigen", "T4 sequence (P25942 21-193 limits assumed)": "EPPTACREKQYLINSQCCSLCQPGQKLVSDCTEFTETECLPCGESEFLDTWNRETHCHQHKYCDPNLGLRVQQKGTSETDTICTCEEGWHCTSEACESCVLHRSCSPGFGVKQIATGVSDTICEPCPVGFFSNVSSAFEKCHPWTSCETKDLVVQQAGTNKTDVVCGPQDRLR", "experiment": "dual target ELISA (simultaneous 5T4 and CD40)", "protocol": "as §2"}}, "note": "Where a chain is given by its changes, count along the chain named. Names may count otherwise. Like-named read-outs stand apart in the source and are kept apart here."}
{"binder": "B1", "values": [{"measurement": "EC50 (read off the curve)", "setting": "[1]", "value": "~0.5", "unit": "nM"}, {"measurement": "binding result", "setting": "[2]", "value": "no binding"}, {"measurement": "binding result", "setting": "[3]", "value": "no binding (tested: about 700 nM)"}]}
{"binder": "B2", "values": [{"measurement": "EC50 (read off the curve)", "setting": "[1]", "value": "~0.4", "unit": "nM"}, {"measurement": "binding result", "setting": "[2]", "value": "no binding"}, {"measurement": "binding result", "setting": "[3]", "value": "no binding (tested: about 700 nM)"}]}
{"binder": "B3", "values": [{"measurement": "EC50 (read off the curve)", "setting": "[4]", "value": "~5", "unit": "nM"}, {"measurement": "EC50 (read off the curve)", "setting": "[5]", "value": "~10", "unit": "nM"}]}
{"binder": "B4", "values": [{"measurement": "binding result", "setting": "[6]", "value": "no binding (tested: about 330 nM)"}, {"measurement": "binding result", "setting": "[7]", "value": "no binding"}]}
